Measured values published in patent publication US10077436B2, “Beta-glucosidase enzymes for increased biomass saccharification” (Edeniq, Inc., priority 2013, dated 2018).
Residue numbers refer to the chain shown, from its start. Names may count otherwise.

B1: yEdQ885-BG: improved (modified) in-house beta-glucosidase mutant secreted by yeast strain yEdQ885 (protein)
chain: MRFTLIEAVALTAVSLASADELAYSPPYYPSPWANGQGDWAQAYQRAVDIVSQMTLDEKVNLTTGTGWELELCVGQTGGVPRLGVPGMCLQDSPLGVRDSDYNSAFPAGMNVAATWDKNLAYLRGKAMGQEFSDKGADIQLGPAAGPLGRSPDGGRNWEGFSPDPALSGVLFAETIKGIQDAGVVATAKHYIAYEQEHFRQAPEAQGFGFNISESGSANLDDKTMHELYLWPFADAIRAGAGAVMCSYNQINNSYGCQNSYTLNKLLKAELGFQGFVMSDWAAHHAGVSGALAGLDMSMPGDVDYDSGTSYWGTNLTISVLNGTVPQWRVDDMAVRIMAAYYKVGRDRLWTPPNFSSWTRDECGYKYYYVSEGPFEKVNQYVNVQRNHSELIRRIGADSTVLLKNDGALPLTGKERLVALIGEDAGSNPYGANGCSDRGCDNGTLAMGWGSGTANFPYLVTPEQAISNEVLKHKNGVFTATDNWAIDQIEALAKTASVSLVFVNADSGEGYINVDGNLGDRRNLTLWRNGDNVIKAAASNCNNTIVVIHSVGPVLVNEWYDNPNVTAILWGGLPGQESGNSLADVLYGRVNPGAKSPFTWGKTREAYQDFLVTEPNNGNGAPQEDFVEGVFIDYRGFDKRNETPIYEFGYGLSYTTFNYSNLEVQVLSAPAYEPASGETEAAPTFGEVGNASDYLYPSGLQRITKFIYPWLNGTDLEASSGDASYGQDSSDYLPEGATDGSAQPILPAGGGPGGNPRLYDELIRVSVTIKNTGKVAGDEVPQLYVSLGGPNEPKIVLRQFERITLQPSEETKWSTTLTRRDLANWNVEKQDWEITSYPKMVFVGSSSRKLPLRASLPTVH
modifications: synthetic mutant beta-glucosidase (BG), BG acid/base mutant #8, yEdQ885 -> Y363C/Y375F/A446A/V498V/G510G/Y560Y/Y610F
B2: yEdQ745-BG: wild type Aspergillus niger beta-glucosidase (Accession CAB75696.1, SEQ ID NO:2) secreted by yeast strain yEdQ745 (protein)
chain: B1 chain with C363Y, F375Y, F610Y
modifications: Aspergillus niger; wild type beta-glucosidase (BG)

How the values were obtained:
Format in all cases: biochemical
[1] = BG supplementation of Celluclast in 48-hour saccharification of filter paper; settings: for optimal CBU/FPU ratio (optimal BG dosage): 10% solid loading, 20% Celluclast loading
Procedure: Experimental conditions in this example using filter paper substrate was 10% solid loading and 20% Celluclast loading based on glucan content. Different BG dosage based on CBU:FPU (BG activity/total cellulase activity) was tested.
Enhancement of glucose release (Equation 5) and lift of sugar conversion (Equation 6) was compared among various BGs at the optimal dosage over time in FIG. 8.

[2] = BG activity assay / kinetics using pNPG substrate; settings: all conditions except initial glucose 36 g/L
Procedure: BG activity assay using pNPG is one of the two commonly used standard assays to measure BG activity, which utilizes hydrolysis of p-nitrophenyl-β-D-glucopyranoside (pNPG) by BG into a yellow colored product, p-nitrophenol (pNP), that has a strong absorbance at 405 nm. One pNPG unit is defined as the amount of enzyme that produces 1 μmol of pNP per min. Briefly, to determine BG activity, 25 μL of diluted enzyme in 200 mM sodium acetate buffer (pH 5.0) was mixed with 25 μL of the same buffer and 25 μL of RO water (or glucose solution for the kinetic study) and the mixture was preincubated at 50° C. for 5 min. […] The reaction was then terminated by adding 100 μL of 0.25 M sodium carbonate, and the amount of pNP produced was determined by measuring absorbance at 405 nm using a predetermined calibration curve. […]
To determine the kinetic properties, a competitive inhibition mechanism was hypothesized as proposed in the literature (Chauve et al, 2010; Krogh et al, 2010). […] The turnover number, Kcat, can be calculated by Equation (2), where [Et] is the total amount of enzyme.
Conventionally, linearization methods can be used to determine the kinetic parameters based on Equation (1). […] Thus, Vmax, Km and Ki can be determined simultaneously from this fitting process, and Km/Ki can then be calculated. Kcat can be obtained by Equation (2) and Kcat/Km can be calculated accordingly.

[3] = BG (cellobiase) activity assay / kinetics using cellobiose substrate, HPLC
Procedure: BG activity assay using cellobiose is the other standard assay to measure BG or cellobiase activity, which utilizes hydrolysis of cellobiose by cellobiase into two molecules of glucose, the last step of enzymatic hydrolysis of cellulose. One cellobiase unit (commonly termed as CBU) is defined as the amount of enzyme that converts […] of cellobiose or produces 2 μmol of glucose per min. Briefly, to determine BG activity, 25 μL of diluted enzyme in 50 mM citrate buffer (pH 4.8) equilibrated to 50° C. was mixed with 25 μL cellobiose (or cellobiose/glucose mixture for the kinetic study) to start the reaction. The mixture was incubated at 50° C. for 10 min, and the reaction was terminated by incubating the mixture at 99° C. for 5 min. Different methods are available to measure the glucose produced in the assays. For the kinetic study, HPLC was used. […]
The specific activity used here was determined by the initial velocity approach that is required by implementing Michaelis-Menten model (Copeland, 2000). The specific activity was determined by measuring consumption of cellobiose in the first 10 min of reaction and was expressed as μmol min^−1 mg^−1, where mg^−1 means per mg of total protein. The relative activity was determined based on the maximum activity obtained in the absence of initial glucose inhibition.

[4] = BG supplementation of commercial cellulase preparations in corn stover saccharification; settings: added to commercial enzyme preparation, 50° C.
Excerpt: In this experiment, 10% CTecII per gram glucan and 0.5% HtecII per mass solids was used as a control level for high saccharification of pretreated biomass. The relatively low enzyme dose of 3% Genencor® Trio per gram glucan was used as a base enzyme level to observe increases in saccharification from supplementation with BG enzymes. Enzyme doses of 0.5%, 1% and 2% of HtecII were used in a parallel set of reactions to likewise observe increases in saccharification from supplementation with concentrated extract from yEdQ745, yeast expressing wild type BG and another set of samples supplemented with commercial BG. • BG were used from two sources: wild type BG (yEdQ745) and commercial BG (Nozyme product SP-188). • Commercial cellulase preparations: Novozymes CtecII, Novozymes HtecII and Genencor® Trio. • Biomass used for the experiment: For each reaction 3 gms from Run 177 corn stover at 10% final solid concentration. • BG addition: 2 mL of wild type BG concentrated from yEdQ745 (11× concentrated) was added to the respective reaction. • Commercial BG: 1 uL/gm of biomass • Buffer: sodium citrate buffer pH5.0 was used for the reaction • Saccharification temperature: 50° C./24 and 48 hours.

Row | Molecule | optimal CBU/FPU ratio (optimal BG dosage) [1] | performance in enhancing saccharification, comparison ([1]; optimal BG dosage) | enhancement of sugar release ([1]; optimal BG dosage, up to 48 h) | lift of sugar conversion ([1]; optimal BG dosage, up to 48 h) | specific activity towards pNPG, comparison [2] | specific activity towards cellobiose, comparison ([3]; absence of glucose inhibition) | effect of BG supplementation on glucose release / glucan to glucose conversion [4] | specific activity towards cellobiose, comparison ([3]; all conditions tested)
1 | B1 | 2 | outperformed the other three BGs | more than 50% | more than 13% | higher specific activity towards pNPG than both yEdQ745-BG (wild type) and S-BG | higher specific activity towards cellobiose than both yEdQ745-BG (wild type) and S-BG | – | –
2 | B2 | 1 | – | – | – | – | – | dramatically increased | the lowest
